Reference: patent US20020192785A1 (ONYX PHARMACEUTICALS, published 2002)

Key:
GST-Cdc42Hs = biological target: T1, GST-Cdc42Hs (UniProt P60953 1-191); assay: pull-down on GSH agarose (nucleotide depleted or GDP state), anti glu-glu immunoblot
T1 construct: Baculovirus expressed; not shown: glutathione S-transferase (GST) fusion partner
Description: (§1) Comparison of p115 stimulated GDP and GTPγ`S dissociation from RhoA. Increasing amounts of glu-glu tagged •N-p115 (0, 0.02, 0.075, 0.02, 0.4, 1.0 μM) were incubated with 0.3 μM RhoA with bound [³H]-GDP or GTP`[³⁵S] for 10 minutes, and the amount of nucleotide remaining bound to RhoA was determined as described in Hart et al. (39). Specificity of •N-p115 stimulated GDP dissociation. Increasing amounts of •N-p115 (0, 0.25, 0.5, 1.0, 2.0 μM) were incubated for 5 minutes with 2.0 μM GST-RhoA, GST-Rac1, GST-Cdc42Hs or EE-K-Ras prebound with [³H]-GDP and analysed as described in A. Western analysis of complex formation. One μg of glu-glu tagged •N-p115 was incubated with 4 μg of the nucleotide depleted or GDP states of baculovirus expressed GST-Rho, GST-Rac or GST-Cdc42Hs coupled to GSH agarose as described in Hart et al. (18). Proteins, which were recovered on the washed GSH beads, were analsed by SDS-PAGE and immunoblotting. The blot was probed with an affinity purified anti glu-glu monoclonal antibody. 100 ngs of glu-glu tagged •N-p115 was used as a positive control. Kinetic analysis of p115-catalyzed GEF activity on RhoA. […] The level of GTP incorporated onto Rho/min/pmol of •N-p115 was measured as GST-RhoA[`³²P]GTP bound to nitrocellulose filters.

GST-Rac1 = GST-Rac1 (UniProt P63000 1-192); assay: as above
Description: as §1

EE-K-Ras = biological target: T2, EE-K-Ras (UniProt P01116-2 1-188); assay: complex formation assay; format for K-Ras not described
T2 construct: Named EE-K-Ras only for the GDP dissociation assay; the result on physical association says 'K-Ras' and its format is not described; not shown: EE (glu-glu) tag

[1] = biological target: RhoA with bound [3H]-GDP or GTPγ[35S] (UniProt P61586 1-193, limits assumed); assay: cell-based or functional assay
Sequence of RhoA with bound [3H]-GDP or GTPγ[35S] (P61586 whole entry): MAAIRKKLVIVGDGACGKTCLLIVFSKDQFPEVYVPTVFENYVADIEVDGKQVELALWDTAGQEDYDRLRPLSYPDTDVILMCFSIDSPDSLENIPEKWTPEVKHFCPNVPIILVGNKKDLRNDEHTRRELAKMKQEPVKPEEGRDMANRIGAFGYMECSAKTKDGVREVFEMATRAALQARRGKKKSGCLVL

T1 sequence (P60953 whole entry, the tested form may be a part): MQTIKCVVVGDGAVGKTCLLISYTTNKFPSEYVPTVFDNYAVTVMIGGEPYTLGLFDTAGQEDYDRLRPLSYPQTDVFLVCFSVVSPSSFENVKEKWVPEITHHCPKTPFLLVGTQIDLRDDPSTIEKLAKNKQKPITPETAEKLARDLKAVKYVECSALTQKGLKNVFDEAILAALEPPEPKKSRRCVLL

B1: glu-glu tagged •N-p115 (amino acids 249-912 of human p115 Rho-GEF) (other, not shown: small tags and cut ends)
chain: VMGNRRSDDPPKTKKGLSSILDAARWNRGEPQVPDFRHLKAEVDAEKPGATDRKGGVGMPSRDRNIGAPGQDTPGVSLHPLSLDSPDREPGADAPLELGDSSPQGPMSLESLAPPESTDEGAETESPEPGDEGEPGRSGLELEPEEPPGWRELVPPDTLHSLPKSQVKRQEVISELLVTEAAHVRMLRVLHDLFFQPMAECLFFPLEELQNIFPSLDELIEVHSLFLDRLMKRRQESGYLIEEIGDVLLARFDGAEGSWFQKISSRFCSRQSFALEQLKAKQRKDPRFCAFVQEAESRPRCRRLQLKDMIPTEMQRLTKYPLLLQSIGQNTEEPTEREKVELAAECCREILHHVNQAVRDMEDLLRLKDYQRRLDLSHLRQSSDPMLSEFKNLDITKKKLVHEGPLTWRVTKDKAVEVHVLLLDDLLLLLQRQDERLLLKSHSRTLTPTPDGKTMLRPVLRLTSAMTREVATDHKAFYVLFTWDQEAQIYELVAQTVSERKNWCALITETAGSLKVPAPASRPKPRPRPSSTREPLLSSSENGNGGRETSPADARTERILSDLLPFCRPGPEGQLAATALRKVLSLKQLLFPAEEDNGAGPPRDGDGVPGGGPLSPARTQEIQENLLSLEETMKQLEELEEEFCRLRPLLSQLGGNSVPQPGCT
notes: Expressed in the baculovirus/Sf9 system and purified on anti-glu-glu Sepharose; also called N-terminal truncated version of p115
Which results are given for B1?
binding result (GST-Cdc42Hs): no binding; binding result (GST-Rac1): no binding; binding result (EE-K-Ras): no binding; stimulation of the intrinsic dissociation of GDP from RhoA [1]: 10 fold
